Drawing on the supplement of paper PMC9732359, this text covers protein stability index for 26 sequences.

± gives the uncertainty stated by the source.

The nature of the data set: protein stability index of a GFP-peptide fusion (yeast GPS) (PSI 1-4); higher = more stable; sorted into four equal gates, so the index is relative within each strain. Put shortly: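 The protein stability index of a peptide was calculated by multiplying its read frequency in each gate by that gate's number and adding the products. The peptides were tiled 17-residue stretches of yeast proteins, fused downstream of GFP on a Cherry-expressing plasmid and carried in yeast as a pooled library. Mid-log cultures in leucine-free medium were sorted into four equal gates by GFP/Cherry ratio, and each gate's plasmids were PCR-amplified and Illumina-sequenced.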

For the sequence ATADTTHLHEALDIVCS [NUT1], the protein stability index (doa10∆) was found to be 2.12 ± 0.056, the protein stability index (pdr5∆) was determined as 2.55 ± 0.063, the protein stability index (san1∆) came out at 2.48 ± 0.12 and the protein stability index (ubr1∆) was determined as 2.69 ± 0.041.

As for ATNANATTDQEGDIHLE [PRE10], the protein stability index was 3.35 ± 0.23 (doa10∆), 3.39 ± 0.14 (pdr5∆), 3.33 ± 0.036 (san1∆) and 3.11 ± 0.12 (ubr1∆).

As for ATNRVDVLDPALLRSGR [RPT5], the protein stability index came to 3.13 ± 0.12 (doa10∆), 2.84 ± 0.11 (pdr5∆), 3.04 ± 0.085 (san1∆) and 2.94 ± 0.075 (ubr1∆).

Consider ATPFRQWFEAHYGQTLG [RPS8A], for which the protein stability index runs as follows: (doa10∆) 2.436 ± 0.022; (pdr5∆) 2.787 ± 0.024; (san1∆) 2.7 ± 0.021; (ubr1∆) 2.573 ± 0.019.

Turning to ATPSAKEASQEDDNNNV [YLR335W/NUP2], the protein stability index reads like this: (doa10∆) 2.57 ± 0.058; (pdr5∆) 2.62 ± 0.056; (san1∆) 2.76 ± 0.051; (ubr1∆) 2.73 ± 0.05.

As to ATQKESLEMVPKDTSAA [RGR1], the protein stability index is 3.25 ± 0.087 (doa10∆), 3.25 ± 0.07 (pdr5∆), 3.09 ± 0.055 (san1∆) and 3.17 ± 0.05 (ubr1∆).

As for ATRTLVASIQNDPSAEV [YCG1], the protein stability index runs as follows: (pdr5∆) 3.41 ± 0.16; (san1∆) 2.79 ± 0.27.

Consider ATTGGLFGSKPQGSTTN [YGR119C/NUP57], for which the protein stability index came to 3.34 ± 0.1 (doa10∆), 3.37 ± 0.1 (pdr5∆), 3.39 ± 0.12 (san1∆) and 3.55 ± 0.18 (ubr1∆).

As to ATVDEFPLCVHLVSNEL [RPL10], the protein stability index by setting is: (doa10∆) 3.01 ± 0.073; (pdr5∆) 2.93 ± 0.067; (san1∆) 3.05 ± 0.069; (ubr1∆) 2.99 ± 0.053.

As for ATYMDNDIAGQPQALQK [RPO21], the protein stability index amounted to 2.56 ± 0.077 (doa10∆), 2.49 ± 0.078 (pdr5∆), 2.5 ± 0.073 (san1∆) and 2.7 ± 0.051 (ubr1∆).

Turning to AVEQLAGCKIDNVDDIG [YDL088C/ASM4], the protein stability index came to 2.86 ± 0.075 (doa10∆), 2.64 ± 0.071 (pdr5∆), 2.56 ± 0.08 (san1∆) and 2.61 ± 0.047 (ubr1∆).

For AVGNLGNAVTVTEDGTV [RPL22A], the protein stability index reads like this: (doa10∆) 1.46 ± 0.062; (pdr5∆) 1.96 ± 0.094; (san1∆) 2.22 ± 0.095; (ubr1∆) 1.99 ± 0.094.

With AVKKLYAIIINYTKDNE [YCS4], the protein stability index was 1.82 ± 0.057 (doa10∆), 2.05 ± 0.068 (pdr5∆), 1.93 ± 0.1 (san1∆) and 1.91 ± 0.029 (ubr1∆).

In turn, AVSKDPLLTKRKDLRDK [DIS3] came in with a protein stability index (doa10∆) of 2.97 ± 0.14, a protein stability index (pdr5∆) of 3.41 ± 0.13, a protein stability index (san1∆) of 2.78 ± 0.22 and a protein stability index (ubr1∆) of 3.25 ± 0.14.

As for AVSRSMTDIWNTLIPES [ECM29], the protein stability index reads like this: (doa10∆) 2.94 ± 0.067; (pdr5∆) 3.05 ± 0.08; (san1∆) 2.84 ± 0.054; (ubr1∆) 3.03 ± 0.069.

Regarding AVVFKPFKGEVVDGTVV [RPB7], the protein stability index by setting is: (doa10∆) 3.05 ± 0.1; (pdr5∆) 3.03 ± 0.048; (san1∆) 2.79 ± 0.062; (ubr1∆) 2.79 ± 0.068.

Regarding AVVGNNMLLDPAANESE [RRP42], the protein stability index reads like this: (doa10∆) 1.47 ± 0.083; (pdr5∆) 1.81 ± 0.073; (san1∆) 2.48 ± 0.093; (ubr1∆) 2.12 ± 0.048.

Regarding AYEEEEENEDNDGNNRT [NUT1], the protein stability index is, setting by setting: (doa10∆) 3.25 ± 0.12; (pdr5∆) 3.37 ± 0.11; (san1∆) 3.47 ± 0.15; (ubr1∆) 3.46 ± 0.068.

Turning to AYLLLVQGGNAAPSAAD [RPP2B], the protein stability index came out at 1.84 ± 0.05 (doa10∆), 1.98 ± 0.038 (pdr5∆), 1.96 ± 0.062 (san1∆) and 2.45 ± 0.061 (ubr1∆).

With CDGDTVWDKFAVNLLNC [SSN2], the protein stability index (doa10∆) was found to be 3.29 ± 0.1, the protein stability index (pdr5∆) came out at 3.3 ± 0.098, the protein stability index (san1∆) is 3.14 ± 0.07 and the protein stability index (ubr1∆) came out at 3.11 ± 0.1.

CDKSVCRKCYARLPPRA [RPL40A]: the protein stability index is 2.5 ± 0.078 (doa10∆), 2.93 ± 0.073 (pdr5∆), 2.56 ± 0.07 (san1∆) and 2.66 ± 0.062 (ubr1∆).

For CDLSSKFNKSKAKFTSL [YCS4], the protein stability index reads like this: (doa10∆) 2.72 ± 0.055; (pdr5∆) 2.79 ± 0.07; (san1∆) 2.98 ± 0.05; (ubr1∆) 2.64 ± 0.037.

On to CFSQENIEEMARVILYL [SIN4], for which the protein stability index (doa10∆) was 2.47 ± 0.083, the protein stability index (pdr5∆) was 2.76 ± 0.14, the protein stability index (san1∆) came out at 2.79 ± 0.095 and the protein stability index (ubr1∆) was 2.76 ± 0.054.

Turning to CFVLGIASMSTVRASSL [SMC2], the protein stability index came to 1.51 ± 0.056 (doa10∆), 1.86 ± 0.055 (pdr5∆), 1.83 ± 0.072 (san1∆) and 1.94 ± 0.065 (ubr1∆).

As to CIIFITFEFINIAFDAH [YML031W/NDC1], the protein stability index runs as follows: (doa10∆) 1.23 ± 0.043; (pdr5∆) 1.44 ± 0.044; (san1∆) 1.38 ± 0.085; (ubr1∆) 1.32 ± 0.032.

Take CIPLVGISVPFHSTYLM [FAS1]: the protein stability index is, setting by setting: (doa10∆) 1.43 ± 0.041; (pdr5∆) 1.3 ± 0.04; (san1∆) 1.27 ± 0.069; (ubr1∆) 1.39 ± 0.027.
